This note sets out measurements from patent US20160033490A1.

This assay concerns the target HRV-3C protease biosensor: blocked hybrid scFv of H6-MG (VH) and HL1-TO1 (VL) with the HRV-3C recognition sequence […]in the peptide linker. Kind of assay: cell-based or functional assay.

Substance Human Rhinovirus 3C protease (enzyme) registered a kinetic assay of MG fluorescence activation, time to complete activation (1 unit protease, 25° C.) of 30 min.
